Test results published in US20260070987A1.
Changes are numbered by the printed parent chain. Numbers in names are those of the source.

B1: equine IgG4 N434Q (antibody, part only; not given: variable domains, not shown: another chain or arm of the molecule)
constant: ASTTAPKVFPLASHSAATSGSTVALGCLVSSYFPEPVTVSWNSGALTSGVHTFPSVLQSSGLYSLSSMVTVPASSLKSQTYICNVAHPASSTKVDKKIVIKECNGGCPAECLQVGPSVFIFPPKPKDVLMISRTPTVTCVVVDVGHDFPDVQFNWYVDGVETHTATTEPKQEQFNSTYRVVSVLPIQHKDWLSGKEFKCKVNNKALPAPVERTISKPTGQPREPQVYVLAPHRDELSKNKVSVTCLVKDFYPTDIDIEWKSNGQPEPETKYSTTPAQLDSDGSYFLYSKLTVETNRWQQGTTFTCAVMHEALHQHYTEKSVSKSPGK
B2: equine IgG4 N434Y (antibody, part only; not given: variable domains, not shown: another chain or arm of the molecule)
constant: B1 constant with Q314Y
B3: equine IgG4 N434V (antibody, part only; not given: Variable domains, not shown: another chain or arm of the molecule)
constant: B1 constant with Q314V
B4: equine IgG4 N434T (antibody, part only; not given: variable domains, not shown: another chain or arm of the molecule)
constant: B1 constant with Q314T
B5: equine IgG4 D312I (antibody, part only; not given: Variable domains, not shown: another chain or arm of the molecule)
constant: B1 constant with D190I, Q314N
B6: equine IgG4 N434R (antibody, part only; not given: variable domains, not shown: another chain or arm of the molecule)
constant: B1 constant with Q314R
B7: equine IgG4 N434W (antibody, part only; not given: variable domains, not shown: another chain or arm of the molecule)
constant: B1 constant with Q314W
B8: equine IgG4 D312A (antibody, part only; not given: variable domains, not shown: another chain or arm of the molecule)
constant: B1 constant with D190A, Q314N
B9: equine IgG4 D312L (antibody, part only; not given: variable domains, not shown: another chain or arm of the molecule)
constant: B1 constant with D190L, Q314N
B10: equine IgG4 N434S (antibody, part only; not given: variable domains, not shown: another chain or arm of the molecule)
constant: B1 constant with Q314S
B11: equine IgG4 D312G (antibody, part only; not given: variable domains, not shown: another chain or arm of the molecule)
constant: B1 constant with D190G, Q314N
B12: equine IgG4 D312C (antibody, part only; not given: variable domains, not shown: another chain or arm of the molecule)
constant: B1 constant with D190C, Q314N
B13: equine IgG4 D312K (antibody, part only; not given: variable domains, not shown: another chain or arm of the molecule)
constant: B1 constant with D190K, Q314N
B14: equine IgG4 D312H (antibody, part only; not given: Variable domains, not shown: another chain or arm of the molecule)
constant: B1 constant with D190H, Q314N
B15: equine IgG4 D312E (antibody, part only; not given: variable domains, not shown: another chain or arm of the molecule)
constant: B1 constant with D190E, Q314N
B16: equine IgG4 D312F (antibody, part only; not given: variable domains, not shown: another chain or arm of the molecule)
constant: B1 constant with D190F, Q314N
B17: equine IgG1 T286R (antibody, part only; not given: variable domains, not shown: another chain or arm of the molecule)
constant: ASTTAPKVFALAPGCGTTSDSTVALGCLVSGYFPEPVKVSWNSGSLTSGVHTFPSVLQSSGFYSLSSMVTVPASTWTSETYICNVVHAASNFKVDKRIEPIPDNHQKVCDMSKCPKCPAPELLGGPSVFIFPPNPKDTLMITRTPEVTCVVVDVSQENPDVKFNWYMDGVEVRRATTRPKEEQFNSTYRVVSVLRIQHQDWLSGKEFKCKVNNQALPQPIERTITKTKGRSQEPQVYVLAPHPDELSKSKVSVTCLVKDFYPPEINIEWQSNGQPELETKYSTTQAQQDSDGSYFLYSKLSVDRNRWQQGTTFTCGVMHEALHNHYTQKNVSKNPGK

Molecular target: equine FcRn (large alpha subunit p51) / equine beta-2-microglobulin complex, biotinylated (equine) (UniProt P30441)
Assay: SPR (Biacore), pH 6

Chain of UniProt P30441 (P30441 21-118, one chain of several): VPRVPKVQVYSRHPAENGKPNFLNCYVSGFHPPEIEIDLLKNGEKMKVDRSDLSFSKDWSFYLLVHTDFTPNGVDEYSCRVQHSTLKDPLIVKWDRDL

| Binder | Kd [nM] |
| --- | --- |
| B1 | 17.7 |
| B2 | 4.6 |
| B3 | 32.6 |
| B4 | 57.5 |
| B5 | 29.4 |
| B6 | 22.7 |
| B7 | 1.6 |
| B8 | 13.1 |
| B9 | 11.6 |
| B10 | 23.8 |
| B11 | 11.2 |
| B12 | 27.1 |
| B13 | 13.6 |
| B14 | 20.2 |
| B15 | 50.2 |
| B16 | 23 |
| B17 | 20.5 |
